Source: paper doi:10.1101/2021.06.22.449466 (bioRxiv, 2021)
Read-outs that look alike come from different tables or passages of the source.

Experiments:
[1] = biological target: T1, Human RPA (heterotrimeric RPA complex: RPA70, RPA32 and RPA14 subunits) (human, UniProt P27694;P15927;P35244); assay: BLI
[2] = biological target: T1, Human RPA (heterotrimeric RPA complex: …); assay: BLI; remark: listed apart in the source

T1 sequence (P27694 whole entry, chain 1 of 3): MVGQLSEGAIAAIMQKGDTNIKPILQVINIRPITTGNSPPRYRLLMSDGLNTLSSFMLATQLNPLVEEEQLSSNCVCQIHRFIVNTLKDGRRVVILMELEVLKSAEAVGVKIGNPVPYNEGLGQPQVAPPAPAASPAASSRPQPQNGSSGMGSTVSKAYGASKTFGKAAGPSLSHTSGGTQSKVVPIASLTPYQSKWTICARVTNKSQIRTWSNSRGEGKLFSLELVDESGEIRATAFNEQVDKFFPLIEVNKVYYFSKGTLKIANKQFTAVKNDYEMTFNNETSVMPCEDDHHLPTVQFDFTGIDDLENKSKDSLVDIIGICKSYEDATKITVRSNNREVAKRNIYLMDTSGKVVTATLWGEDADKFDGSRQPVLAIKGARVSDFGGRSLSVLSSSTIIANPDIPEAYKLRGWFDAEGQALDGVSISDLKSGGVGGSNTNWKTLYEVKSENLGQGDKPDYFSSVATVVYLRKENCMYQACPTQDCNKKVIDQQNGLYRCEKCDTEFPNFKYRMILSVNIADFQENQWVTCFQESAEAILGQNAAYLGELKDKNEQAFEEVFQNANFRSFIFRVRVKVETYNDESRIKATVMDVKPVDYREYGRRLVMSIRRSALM
T1 sequence (P15927 whole entry, chain 2 of 3): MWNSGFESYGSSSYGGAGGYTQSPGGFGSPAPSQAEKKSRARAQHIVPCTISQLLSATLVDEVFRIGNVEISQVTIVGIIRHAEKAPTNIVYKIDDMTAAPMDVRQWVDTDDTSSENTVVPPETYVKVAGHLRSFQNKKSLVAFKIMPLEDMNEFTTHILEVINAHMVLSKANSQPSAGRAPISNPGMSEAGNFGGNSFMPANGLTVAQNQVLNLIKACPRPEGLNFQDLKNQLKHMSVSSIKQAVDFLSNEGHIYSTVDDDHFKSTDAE
T1 sequence (P35244 whole entry, chain 3 of 3): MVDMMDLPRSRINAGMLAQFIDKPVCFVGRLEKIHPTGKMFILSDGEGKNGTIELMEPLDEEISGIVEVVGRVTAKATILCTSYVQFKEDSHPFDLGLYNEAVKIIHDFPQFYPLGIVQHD

B1: Lamin-C (amino acid residues 1-152) (domain or fragment)
chain: METPSQRRATRSGAQASSTPLSPTRITRLQEKEDLQELNDRLAVYIDRVRSLETENAGLRLRITESEEVVSREVSGIKAAYEAELGDARKTLDSVAKERARLQLELSKVREEFKELKARNTKKEGDLIAAQARLKDLEALLNSKEAALSTAL
[1]
  Kd: 35 µM
[2]
  Kd: 1.5 µM
